In the nanobody polyreactivity screen of Harvey et al. (2022):

Assay: yeast display, Sf9 membrane polyspecificity reagent, FACS + sequencing; frameworks hold sequencing errors
Method in brief: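 Synthetic nanobody libraries on Saccharomyces cerevisiae BJ5465 were galactose-induced for 36–48 hours, stained 1 hour at 4 °C with 10% biotinylated, detergent-solubilized Sf9 membrane reagent and enriched on streptavidin microbeads. FACS then separated cells into low and high (top ~1%) gates by anti-HA (expression) and streptavidin (reagent binding) fluorescence. Genes were colony-PCR amplified, MiSeq 2 × 250 sequenced and CDR-length filtered. A clone's polyreactivity label is that of its gate of origin.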

| Sequence | polyreactivity (PSR sort gate) |
| --- | --- |
| QVQLVESGGGLVQAGGSLRLSCAASGSIFPVNAMGLYRQAPGKERELVAAINTSSGSTYYADSVKGRFTISRDNAKNTVYLQMNSLKPEDTAVYYCAAVYVASGYRYGYWGQGTQVTVSS | high polyreactivity |
| QVQLVESGGGLVQAGGSLRLSCAASGGTYGTNAMGWYRQAPGKERELVAAITKTGVRTYYADSVKGRFTISRDNAKNTVYLQMNSLKPEDTAVYYCAAGNPAWPFNYWGQGTQVTVSS | high polyreactivity |
| QVQLVESGGGLVQAGGSLRLSCAASGITFYINAMGWYRQAPGKERELVAVIDSRGSSTFYADSVKGRFTISRDNAKNTVYLVMKSLKPEDTAVYYCAAEPFWDYYATFYWKYGYWGQGTQVTVSS | low polyreactivity |
| QVQLVESGGGLVQAGGSLRLSCAASGFIIKGNVMGWYRQAPGKERELVAAITRRGSTYYADSVKGRFTISRDNAKNTVYLQMNSLKPEDTAVYYCAARPWKAIEKVDGSGGGDYWGQGTQVTVSS | low polyreactivity |
| QVQLVESGGGLVQAGGSLRLSCAASGSTFLTNAMGWYRQAPGKERELVAAIRWRGGDTRYADSVKGRFTISRDNAKNTVYLQMNSLKPEDTAVYYCAAQYRKTQYQKKYDYWGQGTQVTVSS | high polyreactivity |
| QVQLVESGGGLVQAGGSLRLSCAASGSTFGENDMGWYRQAPGKERELVAAITWSGGSTYYADSVKGRFTISRDNAKNPVYLQLNSLNPEDTAVYYCAARSTYRHWYRTGSRFDYWGQGTQVTVSS | low polyreactivity |
| QVQLVESGGGLVQAGGSLCLSCAASGIFVYNAMVWYRQAPGKEREFVAAINKSGASTFYADSVKGRFTISRDNAKNTVYLQMNSLKPEDTAVYYCRERDYWGQGTQVTVSS | low polyreactivity |
| QVQLVESGGGLVQAGGSLRLSCAASGFTFTVYAMGWYRPAPGKERELVAVITSGDGTYYADSVKGRFTISRDNAKNTVYLQMNSLKPEDTAVYYCNARRYSSFRYRFAYDYWGQGTQVTVSS | low polyreactivity |
| QVQLVESGGGLVEAGGSLRLSCAASGSIFARYAMGWTRQAPGKERELVAAITSRGGSTYADSVKGRFTISRDNAKNTVFLQMISLIPEDTAVYYCAAATLWYYRYWTSYDYWGQGTQVTVSS | high polyreactivity |
| QVQLVESGGGLVQAGGSLRLSCAASGRTFSRNAMGWYRQAPGKERELVAAITSSGGSTYYADSVKGRFTISRDNAKNTVYLQMNSLKPEDTAVYYCNADATYRRGGGDYWGQGTQVTVSS | high polyreactivity |
| QDQLVESGGGLVQAGGSLRFSCAPSGFTFTRNPLGCYRQAPGQEREFVARISSRGGSTYYADSVKGRYTISRDIAKNSVYLQMNSLTPEDTAVNYCARDPVGTNSARYNYWGQGTQVTVSS | high polyreactivity |
| QDHLVESGGGLVQAGGSLRLSCAASGSIFYRYAMGWYRQAPWKERELVAAISRSGGTTYYADSVKGRFTISRDNAKNTVYLQMNSLKPEDTAVYYCAARVFHPYSTDPYYYWGQGTQVTVSS | high polyreactivity |
| QVQLVESGAGLVQAGGSLRLSCAASGITFASYAMGWYRQAPGKERELVAAITWGGSRTYYADSVKGRFTISRDNAKNSVYLQMNSLKPEDTAVYYCNAHTRYGPDYSYYYWGQGSQVTVSS | high polyreactivity |
| QVQLVESGGGLVQAGGSLRLICAASGFIFNKNAMGWYRQAPGKERELVAAISQIGGTTYYADSVKGRFTISRVNAKNTVYLQMNSLKPEDTSVYYCAASRRVQSDYWGQGTQVTVSS | high polyreactivity |
| QVQLVESGGGLVQAGGSLRLSCAASGGIFDRYAMGWYRQAPGKERELVAAITSGGSTNYADSVKGRFTISRDNAKNTVYLQMISLKPEDTAVYYCNADLGILSGVAEGPTFREYDYWGQGTQVTVSS | low polyreactivity |
| QVQLVESGGGLVQAGGSLRLICDASGSIFGDYVMGWYSPAPGKERELVAAITSATSTYYADSVKGRFTISRDNAKNTVYLQMNSLKPEDTAVYYCKADATYPLWPNIWYDYDYWGQGTQVTVSS | low polyreactivity |
| QVQLVESGGGLVQAGGSLRLSCAASGSNFTGYGMGWYRQAPGKETELVAAITWSGGSTYYADSVKGRFTISRDNAKNTVYLQMNSLKPEDTAVYYCATPGIYYEMDYWGQGTQVTVSS | low polyreactivity |
| QVQLVESGGGLVQAGGSLRLSCAASGRTFRNYAMGWYRPAPGKERELVAAITWSGGSTYYADSVKGRFTISRDNAKNTVYLQMNSLKPEDTAVYYCNVRSYTRTYNYWGQGTQVTVSS | high polyreactivity |
| QVQLVESGGGLVQAGGKLRLSCAASGSIFSDYTMGWYRQAPGKERELVAVITLSSGSTYYADSVKGRFTISRDNAKNTVYLQMNSLKPEDTAVYYCAADGWYYFGSGVFEYDYWGQGTQVTVSS | low polyreactivity |
| QVQLVESGRGLVQAGGSLRLSCAASGRIFDKYAMGWYRQAPGKERELVAAISSSGGSTYYADSVKGRFTISRDNAKNTVYLQMNSLKTEVTAVYYCARQRYYGYYYWGQGTQVTVSS | high polyreactivity |
| QVQLVDSGGGLVLAGGSLRLSCAASGRTFAYYVMGWYREAPGKERELVAAISGRGGRTNYADSVKGRFTISRDNANNTVFLQMNSLKPEDTAVYYFAADLKLGTFNYWGQGTQVTVSS | high polyreactivity |
| QVQMQESGGGLVQAGGSLRLSCAASGSISRYYDMGWYRQAPGKEREFVAGISGGAITYYADSVKGRFTISRDNAKNSVYLQMNSLNREDTAVYYCAADTGVYQYHSYWGQGTQVTVSS | low polyreactivity |

| Sequence | polyreactivity (PSR sort gate) |
| --- | --- |
| QVQLVESGGGLVHAGGSLRLSCAASGNIITYNAMALYRQAPGKERELVAAITRGGNTNYADSVKGRFTISRDNAKNTVYLQMNSLKPEDTAVYFCAADRYVQLLGYFFEFDYWGQGSQVTVSS | low polyreactivity |
| QVQREESGGGLVQAGGSLRLSCAASGSTFDAYAMGWYRQAPGKERELVAAITWSGGSTYYADSVKGRFTISRDNAKNTVYLQMNSLKPEATAVYYCAADKLGELDYWGQGTQVTVSS | low polyreactivity |
| QVQLVQSRGGLVQAGGSLRISCAASGRIFNPNAMRWDRQAPVKQRELVAAITRGGSTNYADSVKGRLTISRDNAKNTVYLQMISLQPEVSAVLYCAADFKTWYCDFDYCGQGTQVTVSS | high polyreactivity |
| QVQLVESGGGLVQAGGSLRLSCAASGIIFPSYAMGWYRQAPGKERELVAAISLSGGRTYYADSVKGRFTISRDNAKNTVYLQMYSLKPEDTAVYYCAAYPSTSYSKYGYYWGQGTLVTVSS | high polyreactivity |
| QVQLVESGGGLVQAGGSLRLSCAASGSIFYLYAMGWYRQAPGKERELVATITASGGSTNYADSVKGRFTISRDNAKNTVYLQMNSLKPEDTAVYYCAAEYYYLVYEYDYWGQGTQVTVSS | high polyreactivity |
| QVQLVESGGGLVQAGGSLRLSCAASGYTFGYYAMGWYRQAPGKERELVAAINWSGGSTYYADSVKGRFTISRDNAKNTVYLQMNSLKPEDTAVYYCNRRTGSYGRTPVWKGEYYYWGQGTQVTVSS | high polyreactivity |
| QVQLVESGGGLVQAGGSLRLSCAASGSTFRRYAMGWYRQAPGKERELVAAITSGGRTNYADSVKGRFTISRDNAKNTVYLQMNSLKPEDTAVYYCAARYIRGSYGMGYWGQGTQVTVSS | high polyreactivity |
| QVQLVESGGGLVQAGGSLRLSCAASGSIFDTYVMGWYRQAPGKERELVAAISSVSSTYADSVKGRFTISRDNAKNTVYLQLNSLKPVDTAVYYCAADSRSPGHDYWGQGTQVTVSS | low polyreactivity |
| QVQIVESVGGLFQAGGTLRLICAASGLTFRSYTMGWYRQAPGKERELVAAISSGGSTYYADSVKGRFTISRDNAKNTVYLQMNSLKPEDTAVYYCAARAPWPKWGYYYWGQGTQVTVSS | high polyreactivity |
| QVQLVESGGGLVQAGGSLRLSCAASGITFGSKVMGWYRQPPGKEWEFVAVINWSTGSTYYADSVKGRFTISRDNAKNTVYLQMNSLKPEDTAVYYCNTDSGNEWTSYDYWGQGTQVTVSS | low polyreactivity |
| QVQLVESGGGLVQAGGSLRLSCAASGRTFRGYAMGWYRQAPGKERELVAAISASGGSTYYADSVKGRFTISRDNAKNTVYLQMNSLKPEDTAVYYCAARFWFTKGYDYWGQGTQVTVSS | high polyreactivity |
| QVQLVESGVGLVQAGGSLRLSCAASGRTFSRNAMGWYRQAPGKERELVAAISRSGGSTYYADSVKGRFTISRDNAKNTVYLQMNSLKPEDTAVYYCNADVYSTYYNYNYWGQGTQVTVSS | high polyreactivity |
| QVQLVESGRGLVQAGGSLRLSCAASGITFLDYAMGWYRQAPGKERELVAAITKSGGSTYYADSVKGRFTISRDNAKNTVFLQMNSLKPEDTAVYYCAKGRHPLWVEQPYEFDYWGQGTQVTVSS | low polyreactivity |
| QVHLVESGGGLVQAGGSLRLSSAPSGSILLINAMGWYRQAPGKERELVAAIRTGGSTYYADSVKGRFTISRDNAKNTVYLQMNSLKPEDTAVYYCNVDYDVQPGGEFDYWGQGTQVTVSS | low polyreactivity |
| QVQLVESGGGLDQAGGSLRLSCADSGSIFVYYAMGWYRQAPGKERELVAAITTSGGSTYYADSVKGRFTISRDNAKNTVYLQMNSLKPEDTAVYYCAAELLAWYWSYSVPWPYDYWGQGTQVTVSS | low polyreactivity |
| QVHLVESGGGLVQAGGSLRLSCAASGSILDEYAMGWYRQPPGKESELVAAISSSGTSTYYADSVKRRFTISRDNAKNTDYLQMNSLKPEDTAVYDCARVKQHRSHRVPGDDYWGQGTQVTVSS | low polyreactivity |
| QVLLVESGGGLVQAGGSLRLSCAASGSTIRYYAMGWYRQAPGKERELVAAISWRGGSTYYADSVKGRFTISRDNAKYTVYLQMNSLKPEDTAVYYCAVEAVAYGFFHYDYWGQGTQVTVSS | high polyreactivity |
| QVQLVESGGGLVQAGGSLRLSCAASGSTFSENAMGWYRQAPGKERELVADITNGGSTNYADSVKGRFTISRDNAKNTVYLQMNSLKPEDTAVYYCATDSYPGLNPDFDYWGQGTQVTVSS | low polyreactivity |
| QVQLVESGGGLVQAGGSLRLSWAASGSIFFLYAMGWYRQAPAKERELVAAITSIGGSTYADSVKGRFTISRDNAKNTVYLQMNSLKPEDTAVYYCNTDEYPLTVQVQYYYWGQGTEVTVSS | low polyreactivity |
| QVQLVESGGGLVQAGGSLRLSCAASGSIFGSYAMGWYRQAPGKERELVAAISRSGGRTYYADSVKGRFTISRDNAKYTVYLQMNSLKPEDTAVYYCAADTYIGYDYWGQGTQVTVSS | high polyreactivity |
| QVQLVESGGGLVQAGGSLRLSCAASGRIFIYNAMGWYRQATGKERELVAAISYRGGSTYYADSVKGRFTISRDNAKNTVYLQMNSLKPEDTAVYYCNAKIVQYGAHNYWGQGTQVTVSS | high polyreactivity |
